Test results: patent US20260049134A1 (UNIVERSITY OF FLORIDA RESEARCH FOUNDATION, published 2026)
Numbering of substitutions follows the chain as printed. Numbers in names are those of the source.

T1: ANXA1
T1 construct: coated protein in the ELISA; also called ANXA1-His (R&D Systems)
T1 chain: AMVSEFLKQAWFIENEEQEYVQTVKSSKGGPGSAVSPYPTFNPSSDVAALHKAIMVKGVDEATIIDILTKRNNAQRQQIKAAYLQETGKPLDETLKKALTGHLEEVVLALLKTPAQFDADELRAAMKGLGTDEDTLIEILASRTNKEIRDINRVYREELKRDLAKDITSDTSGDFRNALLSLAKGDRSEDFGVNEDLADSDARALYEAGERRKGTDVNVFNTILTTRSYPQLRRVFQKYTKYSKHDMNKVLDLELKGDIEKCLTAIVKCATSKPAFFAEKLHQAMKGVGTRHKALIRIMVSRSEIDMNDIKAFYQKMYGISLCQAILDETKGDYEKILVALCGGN

T2: HHLA2 (B7-H7)
T2 construct: coated protein in the ELISA; also called HHLA2-Fc (R&D Systems)
T2 chain: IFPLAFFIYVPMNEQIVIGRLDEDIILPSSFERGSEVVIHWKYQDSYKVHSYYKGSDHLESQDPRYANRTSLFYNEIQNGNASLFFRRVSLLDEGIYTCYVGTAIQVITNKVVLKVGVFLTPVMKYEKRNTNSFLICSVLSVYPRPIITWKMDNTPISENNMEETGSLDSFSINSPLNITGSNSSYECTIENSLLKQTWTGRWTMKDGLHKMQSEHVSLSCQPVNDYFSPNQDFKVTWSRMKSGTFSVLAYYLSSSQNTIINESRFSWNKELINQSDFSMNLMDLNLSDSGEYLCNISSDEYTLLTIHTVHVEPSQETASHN

T3: IL13RA1
T3 construct: coated protein in the ELISA; also called IL13RA1-Fc-His (R&D Systems)
T3 chain: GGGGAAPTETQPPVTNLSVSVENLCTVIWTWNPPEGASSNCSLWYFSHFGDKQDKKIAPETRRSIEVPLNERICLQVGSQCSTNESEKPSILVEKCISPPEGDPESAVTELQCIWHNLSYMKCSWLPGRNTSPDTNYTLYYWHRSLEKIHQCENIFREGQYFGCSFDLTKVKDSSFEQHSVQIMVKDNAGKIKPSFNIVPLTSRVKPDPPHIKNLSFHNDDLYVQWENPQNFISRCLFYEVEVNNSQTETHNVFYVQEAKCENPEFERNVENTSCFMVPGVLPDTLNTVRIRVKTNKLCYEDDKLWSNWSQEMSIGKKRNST

T4: GARS-His (Sino Biological) (human, UniProt P41250 37-739, limits assumed)
T4 construct: Bought; also called GARS1; glycyl-tRNA synthetase; not shown: His tag of the bought protein
T4 sequence: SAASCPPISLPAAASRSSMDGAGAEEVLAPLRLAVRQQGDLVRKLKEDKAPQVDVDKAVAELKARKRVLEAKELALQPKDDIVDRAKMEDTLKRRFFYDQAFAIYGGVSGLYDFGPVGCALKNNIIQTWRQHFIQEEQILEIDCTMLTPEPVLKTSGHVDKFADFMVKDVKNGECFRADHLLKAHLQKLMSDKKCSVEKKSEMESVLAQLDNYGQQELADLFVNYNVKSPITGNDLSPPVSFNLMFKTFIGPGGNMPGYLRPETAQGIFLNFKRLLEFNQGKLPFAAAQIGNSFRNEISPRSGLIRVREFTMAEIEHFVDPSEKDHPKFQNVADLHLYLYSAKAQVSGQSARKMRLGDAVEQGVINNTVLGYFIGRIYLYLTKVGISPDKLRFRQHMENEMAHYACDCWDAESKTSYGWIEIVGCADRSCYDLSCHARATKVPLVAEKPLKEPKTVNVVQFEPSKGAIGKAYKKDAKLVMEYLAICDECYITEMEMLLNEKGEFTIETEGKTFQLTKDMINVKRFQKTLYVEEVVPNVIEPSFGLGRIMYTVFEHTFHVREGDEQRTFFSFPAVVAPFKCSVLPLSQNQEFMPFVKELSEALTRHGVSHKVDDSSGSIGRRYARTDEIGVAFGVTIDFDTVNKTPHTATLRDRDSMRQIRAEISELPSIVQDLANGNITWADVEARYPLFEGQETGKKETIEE

B1: HW-8 chimeric rabbit-human IgG1 LA/LA/PG (antibody, V domains shown)
VH: QSLEESGGRLVTPGTPLTLTCTVSGFSLSSYAMSWVRQAPGKGLEWIGAISTGGSTTYASWAKGRFTISKTSSTTVDLKMTSLTTEDTATYFCVRHFRLWGPGTLVTISS
VL: QVLTQTPSSVSAAVGGTVTIKCQASQSIGSALAWFQQKPGQRPKLLIYRASNLASGVPSRFKGSGSGTEFALTISGVQREDAATYYCLGGAAAVWAFGAGTNVEIKR
notes: Fc-silenced (L234A/L235A/P329G) IgG1, kappa; Alexa Fluor 647-labeled in single-step flow cytometry; Cluster C-45
B2: HW-101 chimeric rabbit-human IgG1 LA/LA/PG (antibody, V domains shown)
VH: QEQLVESGGRLVTPGTPLTLTCKASGFSLGKYDMSWVRQAPGKGLEWIGTIYAGSGSTWYASWAKGRFTISKTSTTVDLKMTSLTTEDTATYFCARDFLGVNSIWGPGTLVTISS
VL: SFVLTQPASVQVNLGQTVSLTCTADTLSRSYASWYQQKPDQAPVLLIHRDTSRPSGVPDRFSGSNSGNTATLTISGAQAGDEADYYCATSDGSGSNFHFVFGGGTQLTVTG
notes: Fc-silenced (L234A/L235A/P329G) IgG1, lambda; Alexa Fluor 647-labeled in single-step flow cytometry; Cluster C-97
B3: HW-56 chimeric rabbit-human IgG1 LA/LA/PG (antibody, V domains shown)
VH: QSVKESEGGLFKPTDTLTLTCTASGFTVSTNAVTWVRQAPGNGLEYIGTIGRSGSAYFASWAKRRSTLTRDINLNTVTLKMTSLTAADTATYFCVRGSPGYRTAISIWGPGTLVTISS
VL: AVMTQTPSSTSAAVEGTVTINCQASQSISNRLSWFQQKPGQPPKLLIYQASTLASGVPSRFKGSGSGTEFTLTISGVQREDAATYYCLGSYSSSDASFGGGTKLEIKR
notes: as for B1
B4: HW-81 chimeric rabbit-human IgG1 LA/LA/PG (antibody, V domains shown)
VH: QKQLVESGGGLVTPGGTLTLTCTVSGFSLSSNGVSWVRQAPGKGLEYIGLIRSIGSTYYATWAKGRFTISKTSTTVDLKITSPTTEDTATYFCARGGYRNGFKLWGPGTLVTVSS
VL: QPVLTQSPSVSAALGASAKLTCTLSSAHKTYYIEWYQQQHPGKAPRYLMQLQSDGSYTKGTGVPDRFSGSSSGADRYLIISSVQAEDEADYICGVIDSAVYVFGGGTQLTVTG
notes: Fc-silenced (L234A/L235A/P329G) IgG1, lambda; Alexa Fluor 647-labeled in single-step flow cytometry; Cluster C-45
B5: HW-17 chimeric rabbit-human IgG1 LA/LA/PG (antibody, V domains shown)
VH: QSLGESRGRLVTPDETLTLTCTVSGIDLSSNAMSWVRQAPGEGLEWIGTINTGGRAYYASWAKGRFTISRTSTTVDLKMTSLTTEDTATYFCARERYSDGRAYDIWGPGTLVTISS
VL: SFVLTQPASVQVNLGQTVSLTCTADTLSRRYASWYQQKPGQAPVLLIYTDSNRPSGIPDRFSGSSSGNTATLTISGAQAGDEADYYCATDDGSGSIYQYVFGGGTQLTVTG
notes: Fc-silenced (L234A/L235A/P329G) IgG1, lambda; Alexa Fluor 647-labeled in single-step flow cytometry; Cluster C-1
B6: HW-97 chimeric rabbit-human IgG1 LA/LA/PG (antibody, V domains shown)
VH: QKQLVESGGRLVTPGTPLTLTCTVTGIDLSSHGMSWVRQAPGKGLEWIGVIYPSGSTWYASWARGRFTISKTSTTVDLKMTSLTTEDTATHFCARGDVGGADNNIWGPGTLVTVSS
VL: B5 VL with N13D, D25E, R30S, T49R, S51T, N52S, I57V, D90S, I96S
notes: Fc-silenced (L234A/L235A/P329G) IgG1, lambda; Alexa Fluor 647-labeled in single-step flow cytometry; Prototype of cluster C-97

Target: T1, ANXA1
Experiment: ELISA on coated ANXA1-His, 150 ng IgG1; None 0.098
Procedure: (§1) Recombinant purified ECDs (50-150 ng) of each putative target protein were coated, incubated with 150 ng of the indicated primary antibody, and binding was detected using a peroxidase-conjugated anti-human Fab secondary antibody. Heatmap represents averages of technical triplicates. (8B) Target validation via siRNA knockdown. H929 cells were transfected with siRNA pools targeting the putative antibody targets ICAM1, CADM1, and PTPRG. Cells were then subjected to cognate IgG binding analysis via flow cytometry. (NT, non-targeting siRNA).
(§2) ELISA ELISA was conducted as described previously. Briefly, 50-150 ng of antigen was coated overnight in half-area 96-well plates at 4° C., blocked with 3% BSA at 37° C. for 1 h, and 150 ng of chimeric rabbit/human IgG1 was added, incubating for 2 h at 37° C. […] After incubating at 37° C. for 15 min-1 h (depending on intensity of controls), data were acquired using a SpectraMax M5 plate reader (Molecular Devices).

Binder	ELISA Absorbance (405 nm-570 nm)
B1	0.077
B2	0.066
B3	0.082
B4	0.065
B5	0.073
B6	0.075

Target: T2, HHLA2 (B7-H7)
Experiment: ELISA on coated HHLA2-Fc, 150 ng IgG1; None 0.087
Procedure: as §1, §2

Binder	ELISA Absorbance (405 nm-570 nm)
B1	0.073
B2	0.069
B3	0.076
B4	0.072
B5	0.076
B6	0.079

target: T5, PTP4A3 (PRL-3); experiment: ELISA on coated His-PTP4A3
T5 construct: coated protein in the ELISA; also called His-PTP4A3 (R&D Systems)
T5 sequence (chain, as listed by the source limits assumed): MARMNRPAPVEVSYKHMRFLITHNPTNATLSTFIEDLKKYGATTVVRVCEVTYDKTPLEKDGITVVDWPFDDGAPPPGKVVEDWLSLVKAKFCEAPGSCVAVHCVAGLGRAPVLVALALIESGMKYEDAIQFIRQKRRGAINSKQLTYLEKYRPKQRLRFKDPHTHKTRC
Procedure: as §1, §2

Binder	binding result
B1	no binding (tested: 150 ng IgG1 per well)
B2	no binding (tested: 150 ng IgG1 per well)
B3	no binding (tested: 150 ng IgG1 per well)
B4	no binding (tested: 150 ng IgG1 per well)
B5	no binding (tested: 150 ng IgG1 per well)
B6	no binding (tested: 150 ng IgG1 per well)

Target: T3, IL13RA1
Experiment: ELISA on coated IL13RA1-Fc-His, 150 ng IgG1; None 0.094
Procedure: as §1, §2

Binder	ELISA Absorbance (405 nm-570 nm)
B1	0.077
B2	0.067
B3	0.16
B4	0.099
B5	0.073
B6	0.08

Target: T2, HHLA2 (B7-H7)
Experiment: ELISA on coated HHLA2-Fc
Procedure: as §1, §2

Binder	binding result
B1	no binding (tested: 150 ng IgG1 per well)
B2	no binding (tested: 150 ng IgG1 per well)
B3	no binding (tested: 150 ng IgG1 per well)
B4	no binding (tested: 150 ng IgG1 per well)
B5	no binding (tested: 150 ng IgG1 per well)
B6	no binding (tested: 150 ng IgG1 per well)

Target: T1, ANXA1
Experiment: ELISA on coated ANXA1-His
Procedure: as §1, §2

Binder	binding result
B1	no binding (tested: 150 ng IgG1 per well)
B2	no binding (tested: 150 ng IgG1 per well)
B3	no binding (tested: 150 ng IgG1 per well)
B4	no binding (tested: 150 ng IgG1 per well)
B5	no binding (tested: 150 ng IgG1 per well)
B6	no binding (tested: 150 ng IgG1 per well)

target: T4, GARS-His (Sino Biological); experiment: ELISA on coated GARS-His, 150 ng IgG1; None 0.099
Procedure: as §1, §2

Binder	ELISA Absorbance (405 nm-570 nm)
B1	0.081
B2	0.093
B3	0.651
B4	0.641
B5	0.074
B6	0.079

target: T6, APP; experiment: ELISA on coated APP-His, 150 ng IgG1; None 0.092
T6 construct: His-tagged; coated protein in the ELISA; also called APP-His (Acro Biosystems)
Procedure: as §1, §2

Binder	ELISA Absorbance (405 nm-570 nm)
B1	0.071
B2	0.061
B3	0.112
B4	0.081
B5	0.062
B6	0.067
